Results taken from US10501549B2, “Methods of inhibiting pathological angiogenesis with doppel-targeting molecules” (SEOUL NATIONAL UNIVERSITY R&DB FOUNDATION, priority 2015, dated 2019).

B1: 5C7: murine anti-doppel mAb of hybridoma clone 5C7; VL SEQ ID NO: 53, VH SEQ ID NO: 59 (antibody, V domains shown)
VH: QVQLQQSGTELVRPGSSVKISCKASGYAFSSHWMNWVKQRPGQGLEWIGQIYPRNGDTNYNGKFKGKATLTADKSSSTAYMQLSSLTSEDSAVYFCSRSTTIVTTGAYWGQGTLVTVSA
VL: DIQMTQSPSSLSASLGERVSLTCRASQEISGYLSWLQQKPDGTIKRLIYAASILDSGVPKRFSGSRSGSDYSLTISSLESEDFADYYCLQYASYPFMFGAGTKLELKR
B2: 4D6: murine anti-doppel mAb of hybridoma clone 4D6; VL SEQ ID NO: 49, VH SEQ ID NO: 55 (antibody, V domains shown)
VH: QVQLHQSGSELARPGASVKLSCKASGYTFTNYWMQWVKQRPGQGLEWIGAIYPGDGNTRYSQKFKGKATLTADKSSSTAYMQLSSLASEDSAVYYCARRDYGSSYWYFDVWGAGTTVTVSS
VL: DVLMTQTPLSLPVSLGDQASISCRSSQSIVHSNGNTYLEWYLQKPGQSPKLLIYKVSNRFSGVPDRFSGSGSGTDFTLKISRVEAEDLGVYYCFQGSHVPLTFGAGTKLELKR

What was measured:
HUVEC spheroids [1] = assay: HUVEC spheroid sprouting with VEGF and rDPl; assay type: cell-based, human; details: co-treated with VEGF, different concentrations rDPl
Protocol: To test this hypothesis, HUVEC spheroids were treated with VEGF in the presence or absence of rDPl. VEGF promoted HUVEC spheroid sprouting; the sprouting was augmented when co-treated with different concentrations rDPl and in Hu.dpl spheroids (FIG. 27A).

EL4 tumor = assay: Rescue of EL4 tumor growth in Dpl+/− KO mice by rDPl; assay type: in vivo, Dpl+/− KO C57BL/6 mice
Protocol: To rescue angiogenesis and growth of tumor, Dpl^+/− KO mice were treated with intravenous injection of 1 mg/kg of rDPl three times after the 4th day of EL4 tumor inoculation. EL4 cells were also inoculated with 1 and 10 μg of rDPl in a mixture with 50 μL of Matrigel, in Dpl^+/− KO mice and grown for 10 days.

VEGFR2 [2] = assay: VEGF-induced VEGFR2 phosphorylation in HUVECs in presence of rDPl; assay type: cell-based, human; details: in the presence of rDPl
HUVEC spheroids [3] = assay: HUVEC spheroids implanted in Matrigel-fibrin gel in vivo; parameters: species or system SCID mice; details: VEGF and rDPl-treated HUVEC spheroids
Text: HUVEC spheroids in vivo were implanted in Matrigel-fibrin gel in the presence of doppel and VEGF following an established protocol (see Alajati et al., Nat Methods. 5:439-445 (2008) and Laib et al., Nat Protoc. 4:1202-1215 (2009)); Hu.dpl spheroids were used to compare. […] In contrast, the presence of VEGF and rDPl generated a complete and perfused vascular bed in the Matrigel-fibrin gel. […] These findings support that rDPl enhances angiogenesis in tumor.

CT26 colon cancer = CT26 colon cancer model, tumor growth and angiogenesis; assay type: in vivo, mice; details: for tumor volume and weight: intravenous 5 and 10 mg/kg, compared to saline and control IgG; for reduction of tumor growth: intravenous
Protocol: Based on the in vitro data, clones 4D6 and 5C7 were selected to study the anti-tumor and anti-angiogenic effect of in a murine-derived CT26 colon cancer model. When the tumors reached an average size of 50 mm^3, the mice were treated with intravenous doses of 5 and 10 mg/kg 4D6 and 5C7 mAb clones. […] When administered at a dose of 10 mg/kg once or twice a week, 4D6 mAb reduced the tumor growth by 71.1±4.2% or 87.9±3.9%, respectively.

VEGFR2 [4] = assay: VEGFR2 dimerization/clustering in Hu.dpl cells (proximity ligation assay, western blot); assay type: cell-based, human
Text: The effect of doppel on VEGFR2 dimerization in the absence of VEGF was investigated. In situ proximity ligation assay (PLA) was used to see VEGFR2 homodimers/clusters in intact cells (FIG. 22G, H). […] It was observed that the dynamics between VEGFR2 monomer-dimer using western blot (FIG. 28A). In HUVECs, the prominent 125 kDa and a relative weaker 250 kDa band appeared as VEGFR2 monomer and dimer, respectively. In Hu.dpl cells, VEGFR2 was detected at 250 kDa band in immunoblots.

doppel = doppel (Mus musculus, UniProt Q9QUG3); assay: Epitope mapping; assay type: binding; details: doppel peptide mapping
Text: (The same sequence appears in both mouse and human doppel.) FIG. 32 discloses SEQ ID NOS 63-98, respectively, in order of appearance, in the x-axis of the graph and SEQ ID NO: 11 in the body of the graph.
(The corresponding sequence in human doppel is FPDGIH (SEQ ID NO: 61).) FIG. 33 discloses SEQ ID NOS 63-98, respectively, in order of appearance, in the x-axis of the graph and SEQ ID NOS 99-102, 12 and 103-104, respectively, left to right, in order of appearance, in the body of the graph.

TEC spheroids = assay: TEC spheroid sprouting; assay type: cell-based, mouse
Protocol: The spheroid-based in vivo angiogenesis assay was performed according to a published procedure. Briefly, 8×10^6 TECs or TEC^−/−dpl were suspended in […] media containing 20% methocel solution and 80% culture medium. Cells were divided into non-adherent plastic square petri dishes, 25 μL for each spheroid. Spheroids formed by TECs or TEC^−/−dpl were harvested and mixed in a matrigel/fibrin mixture that contained mouse VEGF and bFGF. TECs or TEC^−/−dpl spheroids (1000 spheroids per plug) were inoculated subcutaneously in the flank of each female SCID mouse (5-6 weeks, Jungang Animal Lab, Korea) or female Balb/c nude mice (Orinet bio, Seongnam, Korea). The spheroids were allowed to grow for 3 weeks. Cy5.5-labeled LMWH, at a dose 2.5 mg/kg, was injected intravenously, and at 2 hours after injection, its accumulation at the site of TEC implantation was checked using Optimax-MX3 (GE Medical Systems, Milwaukee, Wis.). In other experiments, Cy5.5-labeled LHbisD4, at a dose 10 mg/kg, was administered orally, and its distribution was also checked as described previously. The matrix plug was removed and part of the plugs was analyzed for microvessel density and drug accumulation by immunofluorescence staining.
Custom made murine anti-doppel mAbs were acquired and tested for recognition of mouse doppel present in host-derived blood vessels of tumors, ability to block doppel function in vitro, and ability to arrest tumor growth. The selection strategy involved screening for binding with mouse doppel using ELISA and testing for ability to detect doppel protein in TEC lysates using western blot. Six independent clones (7D9, 1B12, 1C8, 5C7, 4D6, and 6F11) were identified. Of the six clones, 5C7 and 4D6 abrogated mouse VEGF (mVEGF)-induced sprouting of TEC spheroids (FIG. 20A, B).

[5] = Preliminary safety observations in treated tumor-bearing mice; assay type: in vivo
VEGFR2 [6] = assay: mVEGF-induced VEGFR2 phosphorylation in TECs (immunoblot); assay type: cell-based, mouse; details: purified clones
[7] = tested on: HCT116 human colon cancer; assay: HCT116 human colon cancer mouse xenograft; assay type: in vivo, mice
Text: The antitumor effect of 4D6 mAb was also observed in HCT116 human colon cancer mouse xenografts. 4D6 mAb inhibited tumor growth (FIG. 19C, D), doppel- and CD31-positive tumor vessels (FIG. 19E), and mean tumor blood vessels density commensurately with dose and dosing frequency (FIG. 19F, G).

[8] = mVEGF-induced, cell supernatants of clones
[9] = purified clones, different concentrations

| Molecule | HUVEC spheroid sprouting (HUVEC spheroids [1]) | growth of tumors (EL4 tumor; EL4 cells inoculated with 1 and 10 μg of rDPl in Matrigel) | localization in tumor tissues (EL4 tumor; intravenously injected rDPl) | VEGFR2 phosphorylation by VEGF (VEGFR2 [2]) | hemoglobin content of spheroid plugs (HUVEC spheroids [3]) | tumor volume and weight (CT26 colon cancer) | VEGFR2 dimerization/clustering (VEGFR2 [4]; Hu.dpl cells, in situ PLA) | VEGFR2 band in immunoblot (VEGFR2 [4]; treated Hu.dpl cells, untreated Hu.dpl 250 kDa (dimer)) [kDa] | epitope bound (doppel) | sprouting of TEC spheroids (TEC spheroids; [8]) | sprouting of TEC spheroids (TEC spheroids; [9]) | body weight [5] | clinical chemistry or hematological blood profile [5] | organ pathology upon inspection and histological analysis [5] | VEGFR2 phosphorylation in TECs (VEGFR2 [6]) | reduction of tumor growth (CT26 colon cancer; 10 mg/kg once a week) [%] | reduction of tumor growth (CT26 colon cancer; 10 mg/kg twice a week) [%] | doppel- and CD31-positive tumor vessels and mean tumor blood vessels density ([7]; commensurately with dose and dosing frequency) | tumor growth ([7]; intravenous 5 and 10 mg/kg once a week, 10 mg/kg twice a week) |
| --- | --- | --- | --- | --- | --- | --- | --- | --- | --- | --- | --- | --- | --- | --- | --- | --- | --- | --- | --- |
| rDPl: recombinant doppel (rDPl) protein | augmented | dose dependently rescued | concentrated and colocalized with VEGFR2- and CD31-positive vessels | robustly and dose dependently increased | higher than control and VEGF-treated spheroids | – | – | – | – | – | – | – | – | – | – | – | – | – | – |
| B1 | – | – | – | – | – | markedly regressed | severely compromised | 125 | FPDGIY | abrogated | dose-dependently prevented | no changes | no alteration | no obvious organ pathology | dose-dependently prevented | – | – | – | – |
| B2 | – | – | – | – | – | markedly regressed | – | – | YWQFPD | abrogated | dose-dependently prevented | no changes | no alteration | no obvious organ pathology | dose-dependently prevented | 71.1±4.2 | 87.9±3.9 | inhibited | inhibited |
